Experimental findings from patent publication US10919966B2, “Antibody to programmed death-ligand 1 (PD-L1) and use thereof” (Y-BIOLOGICS INC., dated 2021) are described below.

Usually Kd stands for the equilibrium constant for the complex coming apart. Low values mean tighter binding, high ones weaker binding. In general, koff refers to the rate constant with which the complex falls apart. A low value points to a long-lived complex. As usually defined, the kon is the rate constant with which the complex forms. The low end stands for slower complex formation, the high end for faster complex formation.

Experiment [1] deals with T1, PD-L1-hFc (human, UniProt Q9NZQ7). In words: SPR, ProteOn XPR36, PD-L1-hFc immobilised on GLC chip, antibody 30 nM to 0.123 nM. The method, then: (§1) A ProteOn XPR36 (BioRad) instrument was used. The GLC sensor chip (BioRad) was mounted on the instrument and washed with PBST buffer, and the carboxymethyldextran surface was activated with an EDC/sulfo-NHS mixed solution. PD-L1-hFc dissolved at a concentration of 5 ug/ml in a 10 mM sodium acetate buffer solution (pH 5.0) was injected and immobilized on the GLC sensor chip.
T1 sequence (Q9NZQ7 other isoform, or with tags, fused parts or gaps): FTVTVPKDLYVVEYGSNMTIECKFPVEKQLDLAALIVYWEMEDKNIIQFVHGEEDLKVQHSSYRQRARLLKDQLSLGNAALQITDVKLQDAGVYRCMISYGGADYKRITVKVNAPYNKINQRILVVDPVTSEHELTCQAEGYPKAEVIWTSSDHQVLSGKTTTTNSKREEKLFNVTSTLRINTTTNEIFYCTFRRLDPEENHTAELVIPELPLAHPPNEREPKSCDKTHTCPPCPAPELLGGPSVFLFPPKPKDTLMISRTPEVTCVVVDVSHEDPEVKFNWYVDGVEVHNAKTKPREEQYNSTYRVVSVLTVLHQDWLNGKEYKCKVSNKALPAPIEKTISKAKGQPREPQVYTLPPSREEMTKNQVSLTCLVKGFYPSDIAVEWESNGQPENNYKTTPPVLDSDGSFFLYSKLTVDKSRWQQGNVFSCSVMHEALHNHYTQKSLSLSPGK
In order to deactivate the activated carboxyl groups that remain unreacted with the PD-L1 protein, 1 M ethanolamine was flowed and 10 mM glycine (pH 2.0) was injected in order to wash proteins that remain unbound to the sensor chip.
A general note: In SPR one partner is held on a chip, and binding of the other changes the refractive index at the surface.

For experiment [2], the target named is cynomolgus PD-L1 protein (cynomolgus, UniProt G7PSE7). In words: SPR, ProteOn XPR36, cynomolgus PD-L1 protein (construct not described).
The target in experiment [3] is T1, PD-L1-hFc. In words: SPR, ProteOn XPR36, human PD-L1 (PD-L1-hFc immobilised). The method, then: as §1
In order to deactivate the activated carboxyl groups that remain unreacted with the PD-L1 protein, 1 M ethanolamine was flowed and 10 mM glycine (pH 2.0) was injected in order to wash proteins that remain unbound to the sensor chip. Then, sensogram data were collected during binding and dissociation over time while allowing the antibodies to flow at a flow rate of 30 µL/min (30 nM to 0.123 nM) for 10 min using PBST buffer.

B1: PDL1-16E12 (antibody, V domains shown)
VH: QMQLVQSGAEVKKPGSSVKVSCKASGGTFSSYAISWVRQAPGQGLEWMGRIIPILGIANYAQKFQGRVTITADKSTSTAYMELSSLRSEDTAVYYCAKPRDGYNLVAFDIWGQGTMVTVSS
VL: QLVLTQPPSVSGAPGQTVTISCTGSSSNIGAGYDVHWYQQLPGTAPKLLIYGNNNRPSGVPDRFSGSKSGALASLAITGLQAEDGADYHCQSYDNSLSAHAVFGTGTKVTVL
For the molecule B1, the affinity in experiment [1], expressed as Kd, was 45 pM.

B2: PDL1-16E12 (LS/4F5) (antibody, V domains shown)
VH: B1 VH
VL: QLVLTQPPSVSGAPGQRVTISCTGSSSNIGAGYDVHWYQQLPGAAPKLLIYGDINRPSGVPDRFSGSKSGISASLAITGLQAEDEADYYCQSYDSSLSGGVFGGGTKLTVL
With B2, in experiment [2], the Kd was 1 pM and the koff worked out at 1e-07 s⁻¹. Also, in experiment [3], the Kd was determined as 1 pM, the koff came out at 1e-07 s⁻¹ and the kon was found to be 310000 M⁻¹ s⁻¹.
